Data published in paper PMC6880163 (Journal of Virology, 2019).

Target: the molecule itself
Assay: cross-linking; intact doxycycline-induced HT1080 cells in 1x PBS treated with 0.2 mM EGS (membrane-permeable) for 30 min at room temperature, lysed in LDS sample buffer, Western blot with anti-RFP antibody

B1: TagRFP/TRIM69 V95A L96A double mutant (natural protein, human, UniProt Q86WT6 1-500, looked up)
chain: MEVSTNPSSNIDPGDYVEMNDSITHLPSKVVIQDITMELHCPLCNDWFRDPLMLSCGHNFCEACIQDFWRLQAKETFCPECKMLCQYNNCTFNPAADKLVEKIKKLPLLKGHPQCPEHGENLKLFSKPDGKLICFQCKDARLSVGQSKEFLQISDAVHFFTEELAIQQGQLETTLKELQTLRNMQKEAIAAHKENKLHLQQHVSMEFLKLHQFLHSKEKDILTELREEGKALNEEMELNLSQLQEQCLLAKDMLVSIQAKTEQQNSFDFLKDITTLLHSLEQGMKVLATRELISRKLNLGQYKGPIQYMVWREMQDTLCPGLSPLTLDPKTAHPNLVLSKSQTSVWHGDIKKIMPDDPERFDSSVAVLGSRGFTSGKWYWEVEVAKKTKWTVGVVRESIIRKGSCPLTPEQGFWLLRLRNQTDLKALDLPSFSLTLTNNLDKVGIYLDYEGGQLSFYNAKTMTHIYTFSNTFMEKLYPYFCPCLNDGGENKEPLHILHPQ
notes: also called multimerization-defective mutant of TRIM69; not shown: TagRFP, N-terminal, kept
stoichiometry N: 2

B2: TagRFP/TRIM69 L99A single mutant (natural protein, human, UniProt Q86WT6 1-500, looked up)
chain: MEVSTNPSSNIDPGDYVEMNDSITHLPSKVVIQDITMELHCPLCNDWFRDPLMLSCGHNFCEACIQDFWRLQAKETFCPECKMLCQYNNCTFNPVLDKAVEKIKKLPLLKGHPQCPEHGENLKLFSKPDGKLICFQCKDARLSVGQSKEFLQISDAVHFFTEELAIQQGQLETTLKELQTLRNMQKEAIAAHKENKLHLQQHVSMEFLKLHQFLHSKEKDILTELREEGKALNEEMELNLSQLQEQCLLAKDMLVSIQAKTEQQNSFDFLKDITTLLHSLEQGMKVLATRELISRKLNLGQYKGPIQYMVWREMQDTLCPGLSPLTLDPKTAHPNLVLSKSQTSVWHGDIKKIMPDDPERFDSSVAVLGSRGFTSGKWYWEVEVAKKTKWTVGVVRESIIRKGSCPLTPEQGFWLLRLRNQTDLKALDLPSFSLTLTNNLDKVGIYLDYEGGQLSFYNAKTMTHIYTFSNTFMEKLYPYFCPCLNDGGENKEPLHILHPQ
notes: as for B1
stoichiometry N: 2
